Measured values as given in the nanobody polyreactivity screen of Harvey et al. (2022).

assay: yeast display, Sf9 membrane polyspecificity reagent, FACS + sequencing; frameworks hold sequencing errors
Outline: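 A synthetic nanobody library was expressed on Saccharomyces cerevisiae BJ5465 by galactose induction for 36–48 hours. The library was stained for 1 hour at 4 °C with 10% biotinylated, detergent-solubilized Sf9 membrane reagent and enriched with streptavidin microbeads before FACS. Low and high (top ~1%) gates were set on anti-HA fluorescence for expression and streptavidin fluorescence for reagent binding, and each polyreactivity label reflects the gate of origin.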

Sequence | polyreactivity (PSR sort gate)
QVQLVESGGGLVQAGGSLRLSCAASGITFVFYAMGWYRQAPGKERELVATITWRTTRTFYADSVKRRFTISRDNAKNTVYLQMNSLKPEDTAVYYCAAGVNSTTRINDYWGQGTQVTVSS | low polyreactivity
QVQLVESGGGLVQAGGSLRLSCAASGFTFGLNVMGWYRQAPGKERELVAAISQSGGSTYYADSVKGRFTISRDNAKNTVYLQMNSLKPEDTAVYYCAVDYYPNPSYTVYDDEYWGQGTQVTVSS | low polyreactivity
QVQLVESGGGLVQAGGSLRLTCAASGFIFNRYAMGWYRQAPGKERELDADLTGGSTYYAVSVKGRFTISRDNAKKSVYLQLNSVTPEDTAVDYCAADVLPISTLLFRGPGFDSWGQGTQVTFSS | low polyreactivity
QVQLVESGGGLFQAGGSLRLSCAASGRTLRRNALGWYRQAPWKERELVAAISTGGGSTYYADSVKGRFTISRDYAKKTVYLQINSLNPEDSAVYYCAAVYSQSTKRYELYYWGQGTQVTVSS | high polyreactivity
QVQLVESGGGLVQAGGSLRLICAASGRTLSGYAMGWYRQAPGKERELVAAISSDGRTYYADSVKGRFTISRDNAKNTVYLQMNSLKPEDTAVYYCAKVRRGSYGYWGQGTQVTVSS | high polyreactivity
QVQLVESGGGLVQAGGSLRLSCAASGRTFSYNAMGWYRQAPGKERELVAAISSGGSTYYADSVKGRFTISRDNAKNTVYLQMNSLKPEDTAVYYCAADSPSVWGYRYDYDYWGQGTQVTVSS | low polyreactivity
QVQLVESGGGLDQAVGSLRLSSAASGTTFDKNDMGLYRQAPAKERELVAAISGGSTNYADSVKGRFTISRDNAKNTVYLQMNSLKPEDTAVYYCAARPHAHSDYWGQGTQVTVSS | low polyreactivity
QVQLVESGGGLVQAGGSLRLRCAASGFTFRYYALAWYRPAPGKERELVAAISGSGGSTYYADSVKGRFTISRDNAKNTVYLQMNSLKPEDTAVYYCNALSARSRLQSDYWGQGTQVTVSS | high polyreactivity
QVQRVESGGGLVQAGASLRLSCAASGSTFLTNAMGWYIQAPGKERELVAAITWSGTSTYADSVKGRFTISRDNAKNTVYLQMNSLKPEDTAVYYCIADGWYYPTDDYWGQGTQVTVSS | low polyreactivity
QVQLVESGGGLVQAGGSLRLSCAASGSIFAGYTMGWSRQAPGKERELVAVISTGGRTKYADSVKGRFTISRDNAKNTVYLQMNSLKPEDTAVYYCAADSRGWSLDGDYWGQGTQVTVSS | low polyreactivity
QVQLVESGGGLVQAGVSLRLSCAASGRTFGHYTMGWYRQAPGKERELVARISRTGSTKYADSVKGPFTISRDNAKNTVYLQMNSLKPEDTAVYYCARVQAGGYGERVYAYHYDYWGQGTQVTVSS | high polyreactivity
QVQLVESGGGIVQAGGSLRLSCAGSGSIVSGYTMGWYRQEPGKERELVAAITRSGGRTYYADSVKGRFTISRDYAKNTVYLQMNSLKPEDTSVYYCAAVDRRGANYNYWGQGTQVTVSS | high polyreactivity
QVQLVESGGGLVQAGGSLRLICAASGFTFGYYAMGWYRQAPGKERELVAAITSRGTRTSYADSVKGRFTISRDNEKNTVYLQMNSLKPEDTAVNYCAARVLRGLGEYYWGQGTQVTVSS | high polyreactivity
QVQLVESGGGLVQAGGSLRLSCAASGRTFTSNAMGWYRQAPGKERELVAAISNRGTRTYYADSVKGRFTISRDNAKNTVYLQMNSLKPEDTAVYYCAASERDQRFKHYYWGQGTQVTVSS | high polyreactivity
QVQLVESGGGLVQAGGSLRLSCAASGSIFSSYAMGWYRQAPGKERELVASISWRSGSTYYADSVKGRFTISRDNAKNTVYLQMNSLKPEDTAVYYCATAYYRYYKYRFYYWGQGTQVTVSS | high polyreactivity
QVQLVESGGGLVQAGGSLRLSCAASGIIFDYYAMGWYRQAPGKERELVAGISQRGGSTYYADSVKGRFTISRDNAKITVYLQMNSLKPEDTAVYYWAAYTRSCEGHRGGYWGQGTQVTVSS | high polyreactivity
QVQLVESGGGSVQAGGSLRFSCADSGFTFRKNAMGWYRQAPGKERELVAAISVSGGRTYYADSVKGRFTISRDNAKNTFYLQMNSLKPEETAVYYCAARRYVLVHKDDYWGQGTQVTVSS | high polyreactivity
QVQLVESGGCLVQAGGRLRLSCAASGSTFRSYTMVWYRQAPGKERELVADINGTGGSTYYADSVKGRFTISRDNAKNTVYLHMNSLKPEDTAVYYCAADGYFRTVTSGWALRMGYWGQGTQVTVSS | high polyreactivity
QVQLVESGGGLVQAGGSLRLSCAASGRTQYKYAMGWYRQAPGKERELVATISSGGRTKYADSVKGRFTISRDNAKNTVDLQMNSLKPEDTAVYYCAAQNRPRYYSGDYWGQGTQVTVSS | low polyreactivity
QVQLVESGGGLVQAGGSLRLSCAASGSIFTYYAMGWYRQAPGKERELVATITGLGGRTYYADSVKGRFTISRDIAKNTVYLQMNSLKPEDTAVYYCAVVPETRYYYWGHGTQVTVSS | high polyreactivity
QVQLVESGGGLVQAGGSLRLSCAASGRIFRDYAMGWYRLAPGKERELVAAITLSGTTTYYADSVKGRFTISRDNAKNTVYVQMNSLKPEDTAVYYCNAPRYRYRPHEGDYWGQGTQVTVSS | low polyreactivity
QVQLVESGGGLVQAGGSLRLSCAASGRSIYRNAMGWYRQAPGKERELVAAISGRGGGTYYADSVKGRFTLSRDNAKNTVYLQMNSVKPEETAVYYCAAERKNKYDYWGQGTQVTVSS | high polyreactivity

Sequence | polyreactivity (PSR sort gate)
QVQLVESGGGLVQAGGSLRLSCAASGSTSVQYAMGWYRQAPVKERELVAAIDRSGGSTSYADSVKGRFTISRDNANNTVYLQMNSLKPEDTAVYYCNADPVRSTYSYDYWGQGTQVTVSS | low polyreactivity
QVQLQESGGGLVQACGSLRLSCAASGNISPQLYMGWYRQAPGKEREFVADIAEGSTTYYAESVKGRFTISRDDAKNTVYLHMISLKSEDTAVYYCAARYENAESFYYWGQGSQVTVSS | high polyreactivity
QVQLVESGGGLVQAGGSLRLSCAASGFTFFVYAMGWYRKAPGKERELVATINWSGASTYYADSVKGRFTISRDNAKNTVYLQMNSLKPEDTAVYYCDKDGHYPLVYLAFDYWGQGTQVTVSS | low polyreactivity
QVQLVESGGGLVQAGGSLRLSCAASGRTFKPNAMGWYRQAPGKERELVASINDVGSTNYADSVKGRFTISRDNAKNTVYLQMNSLKPEDTAVYYCAADPYWYPYYGYYILYDYWGQGTHVTVSS | low polyreactivity
QVQLVESGGGLVQAGGSLRLSCAASGSTFGSNAMGWYRQAPGKEREWVAAISWTGGSTYYADSVKGRFTISRDKAKNPVYVHMNSLKPEETAVYYCNDYGYGYPLYRYDYWGQGTQVTVSS | low polyreactivity
QVQLVESVGGLVQAGGSLRLSCAASGSTFGINAMGWYRQAPGKERELVASITRRGGSTYYADSVKGRFTISRDNAKNTVYLQMNSLKPEDTAVYYCNKTYRYGTPLYDYWGQGTQVTVSS | high polyreactivity
QVQLEESGGGLVQAGGSHRLSCAASGFTFIDNAMGSYRQAPGKERELVAAISISGGRTYYADSVKGRFTISRDNAKNTVYLQMNSLKPEDTAVYYCAAGKHRRDDYWGQGTQVTVSS | high polyreactivity
QVQLVESGGGLVQAGGSLRLSCAASGFTFDSYDMGWSRQAPVKEREVVAAITWSGGSTYYADSVKGRFTISRDNAKNTVYLQMNSLKQEDTAVYYCNADTGTYWVPWYHDGYDYWGQGTQVTVSS | low polyreactivity
QVQLVESGGGLVQAGGSLRLSCAASGFIFLTNAMGWYRQAPWKERELVAAITGGGITYYADSVKGRFTISLDNAKNTVYLQMNSLNPEDTAVYYCATDSLIFTIFDYWGQGSQVTVSS | low polyreactivity
QVQLVESGGGIVQAGGSLRLSCAASGNIFPYYAMRWYRQERGKERELVASISRSGGSTYYADSVKGRFTISRDNAKNTVYLEMNSLKPEDTAVYYCNTLSRSWQMDYWGLGTQVTVSS | low polyreactivity
QVQLVESGGGLVQAGGSLRLSSAASGLIFSVYAMGWYRQAPGKERELVAAISSRGGTTYYADSVKGRFTISRDNAKNTVYLQMNSLKPEDTAVYYCAARSWSYTYDYWGQGTQVTVSS | high polyreactivity
QVQLVESGGGLVQAGGSLRLSCAASGITFDRYALGWYRPAPGKEREFVAAISWRGGSTYYADSVKGRFTISRDNAKNTVYLQMNSLKPEDTAVYYCAVGYYDHDYWYEYWGQGTQVTVSS | high polyreactivity
QVQLVESGGGLVQAGGSLRLSCAASGSTFTTYAMGWYRQAPGKERELVAAITSGGTTNYADSVKGRFTISRDNAKNTVYLQMNSLKPEDTAVYYCAARNNVEYLTIYKPYSFGSDSWGQGTQVTVSS | low polyreactivity
QVQLVESGVGLVQAGGSLRLSCAASGSIFTYNAMGLYRQAPGKERELVAAISRRGGTTYYADSVKGRITISRDNAMNTVYLKMNSLKPEDTAVYYCNVARHYAVESGFWGPGTQVTVSS | high polyreactivity
QVQLVESGGGLVQAGGSLRLSCAASGSTFTRNAMGWYRQAPGKERELVAAISGGGGGSTYYADSVKGRFTISRDNAKNTVYLQMNSLKPEDTAVYYCAARAGRYWAAYGYWGQGTQVTVSS | high polyreactivity
QVQLVESGGGLVQAGGSLRLSCAASGFTFVYYAMGWYRQAPGKERELVAAITSADSTNYADSVKGRFTISRDNAKNTVYLQMNSLKPEDTAVYYCNAVYDYYRQSKWTMVYWGQGTQVTVSS | low polyreactivity
QVQLVESGGGLVQAGGSLRLSCAASGRTFPLNAMGWYRQAPGKERELVAAITWSGGRTYYADSVKGRFTISRDNAKNTVYLQMNSLKPEDTAVYYCNVDKVTSWYYYGYWGQGTQVTVSS | low polyreactivity
QVQLVESGGGLVQAGGSLRLSCAASGFIFVTNAMGWYRQAPGKERELVAAINWSGGRTYYADSVKGRFTISRDNAKNTVYLQMNSLKPEDTAVYYCAADPYARLGEYGYCGQGTQVTVSS | low polyreactivity
QVQLVESGGGLVQAGGSLRLSCAATGRIFQRNAMGWYRQAPGKERELVAVISKSGGSTYYADSVKGRFTISRDNAKNTVYLQMNSLKPEDTAVYYCATRYFRPGEKYDYWGQGTQVTVSS | low polyreactivity
QVQLVESGGGLVQAGGSLRLSCAPSGSTFFLYVMGWYRQAPGKEREWVAAITSGGRTYYADSVKGRFTISRDNAKNTVYLQMNSLKREDTAVYYCAADVRRVRVGKYDYWGQGPQVTVSS | high polyreactivity
QVQLVESGGGLVQAGGSLRLSCAASGRIFYSYAMGWYRQAPGKERELVAAITRTGGNTYYADSVKGRFTISRDNAKNTVYLQMNSLKPEDTAVYYCNAEYWKEHYPEIYYSWGQGTQVTVSS | low polyreactivity
